Test results as given in the nanobody polyreactivity screen of Harvey et al. (2022).

Assay: yeast display, Sf9 membrane polyspecificity reagent, FACS + sequencing; frameworks hold sequencing errors
How it was run: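 Galactose-induced (36–48 hours) yeast carrying a synthetic nanobody display library were exposed to 10% biotinylated, detergent-solubilized Sf9 membrane reagent at 4 °C for 1 hour. FACS followed streptavidin microbead enrichment, using low and high (top ~1%) gates for expression (anti-HA) and reagent binding (streptavidin). Colony PCR, MiSeq 2 × 250 sequencing and CDR-length filtering followed. Labels for polyreactivity reflect the gate of origin.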

With “QVQLVESGGGLVQAGGSLRLSCAASGITFAYYVMGWYRQAPGKERELVATITGRGGSTSYADSVKGRFTISRDNEKNPVYLQMNSLKPEETAVYYCATGRYSVADNYWGQGTQVTVSS” as the sequence, how does the “polyreactivity (PSR sort gate)” value read?
Its value is “high polyreactivity”.

For “QVQLQESGAGLVQAGGDLRLSCAASGNIFRDYIMGWYRQAPGKEREFVAGIDRGANTNYADSVKGRFTISRDNAKNTVYLQMNSLKPEDTAVYYCAVHTAIVPDFIYWGQGTQVTVSS”, which “polyreactivity (PSR sort gate)” value is on record?
Its value is “low polyreactivity”.

For “QVQLVESGGGLVQAGGSLRLSCAASGSTYRDYAKGWYRQAPGKERELVASITSGSSTYYADSLKGRFTMSRDNAKNTVYLQMNSLKPEDTAVYYCATGRQYDLHRLRHDYWGQGTQVTVSS”, which “polyreactivity (PSR sort gate)” value is on record?
The value was “low polyreactivity”.

With “QVQLVESGGGLVQAGGSLRLSCAASGRIFNHYAMGWYRQAPGKERELVATISATGGSTYYADSVKGRFTISRDNAKNTVYLQMNSLNPEDTAVYYCNAGHLWYWRTRSARRVGMVYWGQGTQVTVSS” as the sequence, how does the “polyreactivity (PSR sort gate)” value read?
The value was “low polyreactivity”.

Which “polyreactivity (PSR sort gate)” value does the source give for “QVQLVESGGGLVQAGGSLRLSCAASGSTFPRNDMGWYRQAPGKERELVAAISRGGSTNYADSVKGRFTISRDNAKNTVYLQMNSLKPEDTAVYYCAAQIFECAYGMDYWGQGTQVTVSS” here?
The value was “low polyreactivity”.

With “QVQLVESGGGLVQAGASLRLSCAASGLIFIHYAMGWYRQAPGKERELVATISRSGVRTYYADSVKGRFTISRDNAKNTVYLQMNSLKPEDTAVYYCAADYTTNFWGYRYNYWGQGTQVTVSS” as the sequence, how does the “polyreactivity (PSR sort gate)” value read?
The value was “low polyreactivity”.

With “QVQIVESVGGLVQAGGSLRLSCAASGSTFSGYAKGWYRQAPGKERELVAAISWRGVRTYYADSVKGRFTISRDNAKNTVYLQMNSLKPEDTAVYYCAAVRYIPKEFYWGQGTQVTVSS” as the sequence, how does the “polyreactivity (PSR sort gate)” value read?
Its value is “high polyreactivity”.

For “QVQLVESGGGLVQAGGSLRLSCAASGITFGSYAMGWYRQAPGKERELVAAITSGGGTNYADSVKGRFTISRDNPKNTVYLQMNSLKPEDTAVYYCAARYYYLGTRYGYWGQGTQVTVSS”, which “polyreactivity (PSR sort gate)” value is on record?
Its value is “low polyreactivity”.

With “QVQLVESGGGLVQAGGSLRLSCAASGSTFLAYAMGWYRQAPGKERELVAAISSRGSRTYYADSVKGRFTISRDNAKNTVYLQMNSLKPEDTAVYYCATPYSRSYSYRYDYWGQGTQVTVSS” as the sequence, how does the “polyreactivity (PSR sort gate)” value read?
Its value is “high polyreactivity”.

For “QVQLVESGGGLVQARGSLRLSCAASGSTFSVYAMGWYRQAPGKERELVAAITDVDNTYYADSVKGRFTISRDNAKNTVYLQRNSLKPEDTAVYYCDARYYQYYEYYHWGQGTQVTVSS”, which “polyreactivity (PSR sort gate)” value is on record?
Its value is “low polyreactivity”.

For “QVQLVESGGGLVQPGGSLRLSCAASRSIFKVYAMGWYRQEPGKEREFVAAITSSDSNTNYADSVKGRFTISRDNAKNTVYLQMHSLKPEDTAVYYCNARIYNRRYVPHYGFNYWGQGTQVTVSS”, which “polyreactivity (PSR sort gate)” value is on record?
The value was “low polyreactivity”.

For “QVQLVESGGGLVQAGGSLRLSCAASGRIVANAMGWYRQAPGKESELVAAITATYYADSVKGRFTISRDNAKNTVYLQMNSLKPEDTAVYYFNAYLSPKQPLSPPDPSFEGGYWGQGTQVTVSS”, which “polyreactivity (PSR sort gate)” value is on record?
The value was “low polyreactivity”.

Which “polyreactivity (PSR sort gate)” value does the source give for “QVQLVESGGGLVQAGGSLRLSCAASGITFKRYAMGWYRQAPGKERELVAAITISAGSTYYADSVKGRFTISRDNAKNTVYLQMNSLKPEDTAVYYCAAESYGSWYYYWGQGTQVTVSS” here?
The value was “high polyreactivity”.

With “QVHLVESGGGLVQAGGSLRLSFDASGRIFYRNVMGWYRQAPGKERELVATITWGGSTYYADSVKGRFTISRYNEKNTVYLQMNSLKPEDTAVYYCATVRSRLFGQYYYWGQGTQVTVTS” as the sequence, how does the “polyreactivity (PSR sort gate)” value read?
The value was “high polyreactivity”.

With “QVHLVESGGGLVQAGGSLRLSCAASGSNFYPYAMGWYRQEPGKERELVAAIRWRGDRTYYADSVKGRFTISRDNAKKTVYLQMNSLKPEDTGVYYCAADLSGWSTHGSWGQATQVTVSS” as the sequence, how does the “polyreactivity (PSR sort gate)” value read?
Its value is “high polyreactivity”.

With “QVQLVESGGGLVQAGGSLRLSCAACGNTFTYYAMGLYRQAPGKERELVASISSGVSTNYADSVKGRFTISRDNAKNTLYLHINSLKPEDTAVYYCARGWSFSTRRFQHTRYYYWGQGTQVTVSS” as the sequence, how does the “polyreactivity (PSR sort gate)” value read?
The value was “high polyreactivity”.

For “QVQLVDSGGGLVQAGGSLRLSCAASGFTFRPYAMGWYRQAPGKERELVATITGRGGSTYYADSVKGRFTISRDTAKNTVYLQMNSLKPEDTAVYYCASRARYSPAPYDYWGQGTQVTVSS”, which “polyreactivity (PSR sort gate)” value is on record?
Its value is “high polyreactivity”.

With “QVQRVESGGGLVQEGGSLRLSCAASGITFAGYAMGWYRQAHGKERELVAAISTRGGSTTYADSVKGRFTISLDNAKNTVYLQMNRLKPEDTAVYYCAADSYYRRYFGWYEYWGQGTQVTVSS” as the sequence, how does the “polyreactivity (PSR sort gate)” value read?
Its value is “high polyreactivity”.

Which “polyreactivity (PSR sort gate)” value does the source give for “QVQLVESGGGLVQAGGSLRLSCAASGIIFELYAMGWYRQAPGKEREFVAAINFSDGSTDYADSVKGRFTISRDNAKNTVYLQMNSLKPEDTAVYYCNADTIAYGSIIHGYWGQGTQVTVSS” here?
Its value is “low polyreactivity”.

Which “polyreactivity (PSR sort gate)” value does the source give for “QVQLVESVGGLVQAGGSLRLSSAASGITFQYYDMGWYRQAPGKERELVAAIDTSGGSTYYADSVKGRFTISRDNEKNTVYLHMNSLKREDTSVYYGAACYYGYSVYGRMYYWGQGTQVTVSS” here?
Its value is “low polyreactivity”.

For “QVQLVESGGGLVQAGGSLRLSCAASGFIFDYYAMGWYRQAPGKERELVAGISRRGGSTYYADSVKGRFTISRDNAKNTVYLQMNSLKPEDTAVYYCNADAWRKVPHPGTGGRDYWGQGTQVTVSS”, which “polyreactivity (PSR sort gate)” value is on record?
Its value is “high polyreactivity”.

For “QVQLVESGGGLVQAGGSLRLSCAASGFTFWWYAMGWYRQAPGKERELVAAISSGGSTNYADSVKGRFTISRDNAKNTVYLQMNSLKPEDTAVYYCNALGVGHSGFTKFSRYYYWGQGTQVTVSS”, which “polyreactivity (PSR sort gate)” value is on record?
Its value is “high polyreactivity”.

Which “polyreactivity (PSR sort gate)” value does the source give for “QVQLEESGGGLVQAGGSLRLSCAASGSTFRRYTMGWYRQAPGKERELVAAITRGGSTYYADSVKGRFTISRDNAKNTVYLQMNSLKPEDTAVYYCAVKYFTAFRLRGDYWGQGTQVTVSS” here?
Its value is “high polyreactivity”.

With “QVQLVESAAGLVQAGGCLRLSCAASGRIFGYYAMGGYRKAPGKERELVAAITSGGGTYYADSVKGRFTNSRDNAKNTVYLQMNSLKPEDTAVYFCAADDYFHDDYCGQGTQVTVSS” as the sequence, how does the “polyreactivity (PSR sort gate)” value read?
The value was “high polyreactivity”.

For “QVQLVESGGGLVQAGGSLRLSCAASGSIFYYYAMGWYRQAPGKERELVARITFSGGDTYYADSVKGRFTISRDNAKNTVYLQMNSLKPEDSAVYYCAAYCSYFFAWLDSYRDDYDYWGQGTQVTVSS”, which “polyreactivity (PSR sort gate)” value is on record?
The value was “low polyreactivity”.

With “QVQLVESGGGLVQAGGSLRLSCAASGRTFWYYAMGWYRQAPGKEREFVAAISWSGGSTYYADSVKGRFTISRDNAKNTVYLQMNSLKPEDTAVYYCAADRYDSSQFYYWGQGTQVTVSS” as the sequence, how does the “polyreactivity (PSR sort gate)” value read?
Its value is “low polyreactivity”.

With “QVQLVESGGGLVQAGGSLRLSCAASGSISYIYTMGWYRQAPGKERELVAAISGSGSTYYADSVKGRFTISRDNAKNTVYLQMNSLKPEDTAVHYCNAGSGGLNFQEVPQGYDYWGQGTQVTVSS” as the sequence, how does the “polyreactivity (PSR sort gate)” value read?
The value was “low polyreactivity”.

With “QVQLVESGGGLVQAGGSLRLSCAASGTTFTFNAMGWYRQAPGKEREFVAAITASGGRTYYADSVKGRFTISRDNAKNTVYLQMNSLKPEDTAVYYCAAHACLLGPGDFNYWGQGTQVTVSS” as the sequence, how does the “polyreactivity (PSR sort gate)” value read?
The value was “low polyreactivity”.

With “QVQLVESGGGLVQAGGSLRLSCAASGLTFQKNVMGWYRQAPGKERELVAAIRASSSSTYYADSVKGRFTISRDNAKNTVYLQMNSLKPEDTAVYYCAAPRLIKYDYWGQGTQVTVSS” as the sequence, how does the “polyreactivity (PSR sort gate)” value read?
Its value is “high polyreactivity”.

For “QVQLVESGGGLVQAGGSLRLSCAASGRIFWPYAMGWYRQAPGKERELVAAITSGGSTYYADSVKGRFTLSRDNAKNTVYLQMTSLKPEDTAVYYCAKRSSGVSVPVAYGGIKRYNSWGQGTQVTVSS”, which “polyreactivity (PSR sort gate)” value is on record?
The value was “low polyreactivity”.

With “EEELVESGGGLVQAGGSLRLSCAASGRTFARNAMGWYRQAPGKERELVAGINFSGGNTYYADSVKGRFTISRDNAKNTVYLQMNSLKPEDTEVYYCAPRRYWEGDYWGQGTQVTVSS” as the sequence, how does the “polyreactivity (PSR sort gate)” value read?
The value was “low polyreactivity”.

For “QVQLVESGGGLVLAGGRLRLSCAASGFTFGPYAMGWSRQAPGKERELVAAISQSGGRTSYAVSVKGRFTISRDNGKNTVYLQMNSLKPEDTAVYYCAKRANGYRSIYRMDYWGQGTQVTVSS”, which “polyreactivity (PSR sort gate)” value is on record?
The value was “high polyreactivity”.

Which “polyreactivity (PSR sort gate)” value does the source give for “QVQLVESGGGLVQAGGSLRLSCAASGRIFAKYAMGWYRQAPGTERELVAAISWGGGSTYYADSVKGRFTISRDNAKNTVYLQMNSLKPEDTAVYYCAARIPKQRDVRGSGMNYWGQGTQVTVSS” here?
Its value is “high polyreactivity”.

For “QDQLVESGGGLVQAGGSLRLSCAASGSTLRRYAMGWYRQAPGKERELVAAISGSGDSTYYADSVKGRFTISRDNAKNTVYLQMNSLKPEDTAVYYCNAVYAFNGYDYWGQGTQVTVSS”, which “polyreactivity (PSR sort gate)” value is on record?
Its value is “low polyreactivity”.

Which “polyreactivity (PSR sort gate)” value does the source give for “QVQLVESGGGLFQAGGSLRLSCAATGSTYIRYAMGWYRQAPGKEREFVAAITWSGTGTYYADSVKARFTISRDNAKNTVYLQMNSLKPEDTAVYYCAAEWSWVRYSFDYWGQGTQVTVSS” here?
Its value is “high polyreactivity”.

With “QVQLVESGGGLVQAGGSLRLSFAASGSIFDDNAMGWYRQAPGKERELVAAITSTDSTNYADSVKGRFTISRDNAKNTVYLQMNSLKPEDTAVYYCARDIKHATSYEALYYSDYDYWGQGTQVTVSS” as the sequence, how does the “polyreactivity (PSR sort gate)” value read?
The value was “low polyreactivity”.

With “QVQLVESGGGLVQAGGSLRLSCAASGLTLYRYTMGWYRQAPGKERELVAGISRGGSTYYADSVKGRFTISRDNAKNTVYLQMNSLKPEDTAVYYCAAYYGGHYYAYSYDYWGQGTQVTVSS” as the sequence, how does the “polyreactivity (PSR sort gate)” value read?
Its value is “high polyreactivity”.

With “QVQLVESGGGLVQAGGSLRLSCAASGRTFRNNAMGLCRQAPGKEREFVAVISNTGGSTYYADSVKGRFTISRDNAKNTVYLQMNSLKPEDTAVYYCAVRPRYSQYYYWGQGTQVTVSS” as the sequence, how does the “polyreactivity (PSR sort gate)” value read?
The value was “high polyreactivity”.

Which “polyreactivity (PSR sort gate)” value does the source give for “QVQLVESGGGLVQAGGSLRLSCAASGRIIYENAMGWYRQAPGKEREFVAAITGSGGSTYYADSVKGRFTISRDNAKNTVYLQMISLKPEDTEVYYCAAPLSSYWVYIVRYGYDYWGQGTQVTVSS” here?
The value was “low polyreactivity”.

For “QVQLVESGGGLVQAGGSLRLICAASGFTLTRNAMGWYRQAPGKESELVAAISWSGGTTYYADSVKGRFTISRDNAKNTVYLQMNSLKPEDTAFYYCNTASWRDQYYYWGQVTQVTVSS”, which “polyreactivity (PSR sort gate)” value is on record?
Its value is “high polyreactivity”.

Which “polyreactivity (PSR sort gate)” value does the source give for “QVHLVESGGGLVQAGGSLRLSCAASGIIFAPNAMGWYRQAPGKEREVVAGISSRGGSTYYADSVKGRFTISRDNAKNTVYLQMNSLKPEDTAVYYCAADLSYNPDEYWGQGTQVTVSS” here?
The value was “low polyreactivity”.
